Columns and labels:
[1] = target: wild-type CXCR4 isoform B (X4b-WT), expressed on CXCR4-/- B4 SupT1 cells by lentiviral transduction (UniProt P61073); experiment: flow cytometry on X4b WT B4 SupT1 transfectants, PE goat anti-mIgG detection
[2] = target: C34-CXCR4 isoform B fusion protein (C34-X4b), expressed on CXCR4-/- B4 SupT1 cells by lentiviral transduction (Pan troglodytes (Chimpanzee)) (UniProt P61072); experiment: flow cytometry on C34-X4b B4 SupT1 transfectants, PE goat anti-mIgG detection
Chain of UniProt P61072 (P61072 1-352, tags or fused parts left off): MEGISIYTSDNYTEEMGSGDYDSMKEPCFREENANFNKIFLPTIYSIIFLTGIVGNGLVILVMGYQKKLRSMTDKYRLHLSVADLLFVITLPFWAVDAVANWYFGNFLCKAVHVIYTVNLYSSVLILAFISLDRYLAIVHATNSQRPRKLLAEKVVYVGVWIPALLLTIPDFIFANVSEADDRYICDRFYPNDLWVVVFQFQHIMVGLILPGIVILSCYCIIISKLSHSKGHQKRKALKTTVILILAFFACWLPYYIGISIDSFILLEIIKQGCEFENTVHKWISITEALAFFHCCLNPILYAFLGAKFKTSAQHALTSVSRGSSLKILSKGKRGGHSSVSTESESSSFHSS

Chain of UniProt P61073 (P61073 whole entry, the tested form may be a part, canonical isoform): as the sequence (P61072 1-352, tags or fused parts left off) above

Substance | MFI [1] [MFI] | positively stained cells (%) [1] [%] | MFI [2] [MFI] | positively stained cells (%) [2] [%]
anti-CXCR4 monoclonal antibody 12G5 (BD Biosciences) | 214 | 95.8 | 253 | 96.6
isotype control mIgG1 (antibody) |  | 0 |  | 0
isotype control mIgG2a (antibody) |  | 0.98 |  | 0.39
